System: MS2 coat protein
Test: apparent KD of MS2 coat protein; designed switch direction (-1 OFF switch, 1 ON switch): -1; higher = weaker reporter binding
Summary of the method: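 An oligonucleotide input, 200 uM small-molecule ligand, or no input was present during titration of SNAP-549-labelled MS2 coat protein, which was doubled from 0.7 or 1.5 nM to 3 µM. Designed RNA switches had been transcribed on Illumina chips by stalled E. coli RNA polymerase. Apparent KD per design is the median over clusters of curves fitted to normalised cluster fluorescence.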

[1] = Eterna round: R95, input ligand: FMN 200 uM
[2] = Eterna round: R95, input ligand: microRNA oligo, concentration not stated
[3] = Eterna round: R95, input ligand: none
[4] = input ligand: microRNA oligo, concentration not stated

Sequence	apparent KD of MS2 coat protein [1]	apparent KD of MS2 coat protein [2]	apparent KD of MS2 coat protein [3]	apparent KD of MS2 coat protein (input ligand: FMN 200 uM)	apparent KD of MS2 coat protein (input ligand: none)	apparent KD of MS2 coat protein [4]
CUAGAUCAUUGGAUCUAGUACAUGAGGAUCACCCAUGUGACGAGUUACAUGUUAUAUAAGCUUUUUGCUCGUCAUUU [AK 1] (puzzle: Sensor v3, turn-off variant 1)	63.4 nM	81.1 nM	86.3 nM			
AGGUAGUCAGGAUAUUAAGAGUAGCGGGAUAACGCUACGAGUGAGAAGGGACAUGAGGAUCACCCAUGUUUAUU [JR_Ex4_Sub070] (Eterna round: R97, puzzle: Exclusion 4)				23 nM	24.8 nM	
GGAUGAGAGCAGGAUAUCUUAUAAAUGUAUGAAAGAGAAGGGCUCACAUGAGGAUCACCCAUGUGGUCCUAGAU [jl-ex6-4.73 jandersonlee mod] (Eterna round: R97, puzzle: Exclusion 6)				280 nM	35.9 nM	
ACAUGAGGAUCACCCAUGUUUAUUGGGUACUAUACUAUCAGCAAGGAUAUGCAAAUUUUUUUUACGCAGAAGGUGCAGGAACCU [JR_ExcNG3_Sub070] (Eterna round: R96, puzzle: Exclusion NG 3)						355 nM
GGUUGGCGAGGAUAUACAUGAGGAUCACCCAUGUGAGAGUAAAAAGUGAGGAAGAAAAGUAGAAGGCGCUGACG [salish99_ex3_r3_011] (puzzle: Exclusion 3)	68.6 nM	36.3 nM	44 nM			
UAGGUGCAAGGAUAUCGCCCGGAAGACAUGAGGAUCACCCAUGUACCGGGUGAGUAUGGGCGAGAAGGUGCAUAUU [Usergete] (puzzle: Exclusion 5)	298 nM	75.9 nM	92 nM			
AGCGAGCUAGGAUAUACAUGAGGAUCACCCAUGUCUUUUUAGUACUACGGUGGAAGAUGUAGAAGGAGUGAGAA [Soisza] (puzzle: Exclusion 3)		92.3 nM				
GCCGAUUAAGUGAGGAUAUACCUAUGGAUACAUAGGUAGAAGGUACAUGAGGAUCACCCAUGUUCCUUAACGGC [Fiskers BMX 4 - 8] (puzzle: Brourd's mod of Exclusion 4)		10.4 nM				
AUAAUGUAAGGAUAUCAGUCGACUAGCUGCGGCUAGUCGACUGAGAAGGUACAUGAGGAUCACCCAUGUGAAUA [E4/16-A3] (Eterna round: R97, puzzle: Exclusion 4)				224 nM	41.7 nM	
AUUUUGUCAGGAUAUGAGUAGUAGGACGAAAGUGUUAUUAUUUAGAAGGGACAUGAGGAUCACCCAUGUUCCUC [Bring Us a Shrubbery-03] (Eterna round: R96, puzzle: Exclusion 4)				13.9 nM	13.7 nM	10.7 nM
AGGUGCUUCAGGAGACAUGAGGAUCACCCAUGUUGAGUUAGCGAGGAUAUCGGUAACCCUUGUGAUGAGAAGGCGCAAACCAGU [Ex NG3 #45] (Eterna round: R96, puzzle: Exclusion NG 3)				39.5 nM	29.1 nM	14.4 nM
AAGAGGAUUAUAGGAUAUGAAGCUAAAACGGCGUUAGAAGGGUAUACAGAGUUACAUGAGGAUCACCCAUGUUGUGAUUUCUAA [AK ExNG1-V2-4.3] (Eterna round: R96, puzzle: Exclusion NG 1)				52.6 nM	62.5 nM	36.9 nM
GCGCGAAGGUAGGAUAUCCGGCGAUCUUCCGUCGGAGAAGGACCCACAUGAGGAUCACCCAUGUGGUGAUCCUG [eternacac ex6r4 sub13] (Eterna round: R97, puzzle: Exclusion 6)				12 nM	23.9 nM	
GGGCUGUCAGGAUAUGUGUGUGUGUGUGAAAGCGCGCGCGCGCAGAAGGGACAUGAGGAUCACCCAUGUGGCCC [-35.3, -34.3 kcal, A 20%, 6bis-0] (Eterna round: R97, puzzle: Exclusion 4)				32.1 nM	33 nM	

Reference: the supplement of paper PMC9170038
